Data taken from patent publication US20200231630A1.
pKd: −log10 of the molar value.

Experiments:
[1] = biological target: rsH14WIv2 monomeric HA1 head; experiment: BLI, Fab and monomeric HA head
[2] = biological target: rsH14WIv1 monomeric HA1 head; experiment: BLI, Fab and monomeric HA head
[3] = biological target: rsH14WIv2 monomeric HA1 head; experiment: BLI, Fab on Ni-NTA sensor, monomeric HA head in solution
[4] = biological target: H4N6 A/America black duck/New Brunswick/00464/2010 hemagglutinin, monomeric HA1 head (Influenza A virus H4N6 A/America black duck/New Brunswick/00464/2010); experiment: as above
[5] = biological target: H14N6 A/mallard/Wisconsin/10OS3941/2010 hemagglutinin, monomeric HA1 head (Influenza A virus H14N6 A/mallard/Wisconsin/10OS3941/2010); experiment: as above
[6] = biological target: rsH4NBv1 monomeric HA1 head; experiment: as above
[7] = biological target: rsH4NBv3 monomeric HA1 head; experiment: as above
[8] = biological target: H1 A/Solomon Islands/3/2006 hemagglutinin, monomeric HA1 head (Influenza A virus H1N1 A/Solomon Islands/3/2006) (UniProt B4URD6); experiment: as above
[9] = biological target: rsH14WIv1 monomeric HA1 head; experiment: as above

**Q.** For C05 Fab, which fold tighter binding than wildtype H1 SI-06 [1] is on record?
**A.** > 10 fold

**Q.** What about the fold KD greater than wildtype H1 SI-06 [2] of the same substance?
**A.** 1.3 fold

**Q.** And the pKd [3]?
**A.** 7.19

**Q.** What about the pKd [4] of the same substance?
**A.** < 4.00

**Q.** And the pKd [5]?
**A.** < 4.00

**Q.** And the pKd [6]?
**A.** < 4.00

**Q.** What about the pKd [7] of the same substance?
**A.** 6.47

**Q.** And the pKd [8]?
**A.** 5.96

**Q.** What about the pKd [9] of the same substance?
**A.** 5.85

**Q.** Which fold KD greater than wildtype H1 SI-06 [2] does the source give for CH67 Fab here?
**A.** 17 fold

**Q.** What about the pKd [3] of the same substance?
**A.** 6.51

**Q.** What about the pKd [4] of the same substance?
**A.** < 4.00

**Q.** What about the pKd [5] of the same substance?
**A.** < 4.00

**Q.** What about the pKd [6] of the same substance?
**A.** < 4.00

**Q.** And the pKd [7]?
**A.** 5.80

**Q.** And the pKd [8]?
**A.** 6.24

**Q.** What about the pKd [9] of the same substance?
**A.** 5.02
